# Patent publication US20200108091A1, “GUT-PROTECTIVE EFFECT OF RIG-1/MAVS AND STING ACTIVATION” (MEMORIAL SLOAN-KETTERING CANCER CENTER, priority 2017, published 2020)
# System: small intestinal organoids
# Assay: Ex vivo organoid culture of small intestine crypts
# Type: cell-based, mouse
# Protocol: Isolation of intestinal epithelial crypts was performed as previously described (26). Briefly, after harvesting small intestines, the organs were opened longitudinally and washed. Small intestine was incubated in 10 mM ethylenediamine-tetraacetatic acid (EDTA) for 25 min (4° C.) to dissociate the crypts. The supernatant containing crypts was collected.
# 250 crypts per well were suspended in growth factor reduced Matrigel (Corning) (33% ENR-medium; 66% growth factor reduced Matrigel) at 4° C. Then, they were plated in delta-surface Nunc 24-well plates in 30 μL drops, each containing approximately 250 crypts. […]
# To determine the effect of 3pRNA/interferon stimulatory DNA/rmIFN-β on organoid size and morphology, bright-field microscopy images were taken using a Zeiss Axiovision Observer microscope with a 5× objective lens after 5 or 7 days in culture. 2D area and perimeter were analyzed using border perimeter tracing of organoids found in four representative fields of each well using Image J software. For assessment of gene expression by quantitative (q) PCR, organoids were subjected to RNA extraction 24 hours after culture using Trizol reagent (Invitrogen) according to manufacturer's protocol. Isolated RNA was reverse-transcribed using the Quantitect Reverse Transcription Kit (Qiagen). […]
molecule,measurement,setting,value
"recombinant IFN-β: recombinant murine (rm) IFN-β (20 U/ml; PBL (12400-1)) (protein, UniProt P01575 22-182, looked up) Interferon beta: INYKQLQLQERTNIRKCQELLEQLNGKINLTYRADFKIPMEMTEKMQKSYTAFAIQEMLQNVFLVFRNNFSSTGWNETIVVRLLDELHQQTVFLKTVLEEKQEERLTWEMSSTALHLKSYYWRVQRYLKLMKYNSYAWMVVRAEIFRNFLIIRRLTRNFQN",number of organoids,"7 days in culture, IFN-β 20 U/ml or α-IFNaR1 Ab 10 ug/ml",Neither recombinant IFN-β nor IFNAR blockade could influence
same,organoid size,"recombinant murine IFN-β 20 U/ml, 5 or 7 days in culture",increased organoid size
